Measured values reported in the DeepSol protein solubility set.

Test: soluble on expression in E. coli; label from the status in PepcDB or PDB records

Row | Sequence | soluble on expression in E. coli
1 | SDQGLIFTNHHCGYGAIQSQSTVDHDYLRDGFVSRTMGEELPIPGLSVKYLRKIVKVTDKVEGQLKGITDEMERLRKAQEVCQELAKKENADENQLCIVEPFYSNNEYFLIVYDVFKDVRMVFAPPSSVGKFGGDTDNWMWPRHTGDFSVFRVYAGADNRPAEYSKDNKPYKPVYFAAVSMQGYKADDYAMTIGFPGSTDRYLTSWGVEDRIENENNPRIEVRGIKQGIWKEAMSADQATRIKYASKYAQSANYWKNSIGMNRGLARLDVIGRKRAEERAFADWIRKNGKSAVYGDVLSSLEKAYKEGAKANREMTYLSETLFGGTEVVRFAQFANALATNPDAHAGILKSLDDKYKDYLPSLDRKVLPAMLDIVRRRIPADKLPDIFKNVIDKKFKGDTKKYADFVFDKSVVPYSDKFHAMLKSMDKEKFAKAIEKDPAVELSKSVIAAARAIQADAMANAYAIEKGKRLFFAGLREMYPGRALPSDANFTMRMSYGSIKGYEPQDGAWYNYHTTGKGVLEKQDPKSDEFAVQENILDLFRTKNYGRYAENGQLHIAFLSNNDITGGNSGSPVFDKNGRLIGLAFDGNWEAMSGDIEFEPDLQRTISVDIRYVLFMIDKWGQCPRLIQELKLI | not soluble
2 | MVSSQPKYDLIREVGRGSYGLVYEALVRRTGQRVAVKKIRCQAPENVELALREFWALSSIQSQHPNVIHLEECVLQRDGMVQRMLHGSSSVLYLP | not soluble
3 | MLSKKRSMSFAKRTLLSVSLSLVSGLSFAKMYELPEDGSRLIGRLENHVVQQGETMANIAKHYDVGMLALMAANKGVDPFLPQEGRVLTIPSQLILPEVPHQGIVINLAELRLYYFPEGEDVVHVFPVGIGRIGRDTPVMTTSISQKRPNPTWTPPASIRAEYRAKGVDLPAVVPAGPDNPLGLFALRLAYGNGEYLIHGTNKDFGIGMRVSAGCIRMDPSDIEWLFDKVRRGEKVNIINQPVKVSLEPDRSVFVEAHEPLTRSNGEKDHLQVPKELGWWLNEFGLTNVKAKAVIAAQNGVPVEITAP | not soluble
4 | MVSSLFINPFSEDAREIVRKYGSLDTIDDTRDELLEIGRRTRGQNLADNSLLPASIAELAVKRLEWYLRRQRKDFNHRDYAYLMNPEIEEYDVLAFYILAQAAGAGFMKASREARLVVESAGAMVEDRLNVFGGEREEIMAEVLYELGSEGLRWTELADLLGSGKLKLTDLILKEGRVIIDRDEFITSFQDSIRDRSPDRLYDILVGLEVRETMISRMIMQRTEEYIGMVREMSSTVEVHPLILETAERIRETVEEIMSFTGGPVKSARPGKLVQEAFPPCIRGTLDGVRSGNRNDAIVLLLTSFISYARLYPSVFRDRTPMKVSDLDPDLRITLGEILPVIYDAADRCEPPLFEDDPQEKLNITAKLGFGVHDMPELENEGESKWYTPMSCEKIKIHLPDLCRPDKLCSSISNPLTYYNRKRWKLRSSGEKEELEHHHHHH | not soluble
5 | MARKNQKAPWEPEEEIIWVSKSEMKRDMEELQKLGEELVGLKPAVLEKFPLSEDLREAIADAQRFKNEARRRQLQRIGKLMRYEDPEPIQAALDKVRNKHSQATAALHKLEMLRDRVVEEGDKAIDDVMELYPEADRQRLRQLARQAAKEKKAGKPAKSYREIFQILKALNEEE | soluble
6 | MGSDKIHHHHHHMKKVVVGLSGGVDSSTAAAILHNQGYEVIGLTLWLMKGKGQCCSEGMIDAAYICEQLGIPHEVVDMRDVFQTHIVDYLVTGYGAGITPLPCSQCNKTVKFGPMVQYAREQLGCDRIATGHYARISYDEASGRYQLLRAVDRNKDQSYFLYDLSQDLLAASLFPLGEMEKADTRRIATEHGLKTADKPESQDLCLVESNGSMRAFLDKYIAPKKGDIVDTAGKILGQHDGVHHYTIGQRKGLGIAAPEPLYVVELDAVNNKVVVGDRTKATQEECTVSRVNWVSIPEPSTPIRAAVQIRYRSAPEPVTVIPLENSRVRLVFDEPQFSITPGQAAVWYDGDKVLGGGIIEQFSN | not soluble
7 | MGSDKIHHHHHHMIMIRQLTPADFDAVITLGEIVHGSGYMDIAELTAIYHKGIKNGINANFVALENEQLIGFRLTYAAGQWPQDQWCTVDKWGVKFEDVCYFKSNTIAESGRGQGLGGKLLAASKAAVIAQGAKAGVSHLWQQSPNNAAVRYFTKAGGKLIKQHPQRWHQRYMGDDYICVLCGEDCHCVACEMLLLF | not soluble
8 | SNAMTGTLLSFGHGYTARVLSRALAPQGWRIIGTSRNPDQMEAIRASGAEPLLWPGEEPSLDGVTHLLISTAPDSGGDPVLAALGDQIAARAAQFRWVGYLSTTAVYGDHDGAWVDETTPLTPTAARGRWRVMAEQQWQAVPNLPLHVFRLAGIYGPGRGPFSKLGKGGIRRIIKPGQVFSRIHVEDIAQVLAASMARPDPGAVYNVCDDEPVPPQDVIAYAAELQGLPLPPAVDFDKADLTPMARSFYSENKRVRNDRIKEELGVRLKYPNYRVGLEALQADAET | soluble
9 | QCGACGESYAADEFWICCDLCEMWFHGKCVKITPARAEHIKQYKCPSCSNK | soluble
10 | MLIILLLTVLTVYLVYELYWKRRNFPPGPCPLPVFGNLLSIANPPPGYEAFERWTKKYGDIYTFWIGNTPHIMINTWDKIKETYIRDAETYTNKVRLPALDLFRGGEYGIIDSNGATWREHRRFALSTMRDFGLGKNLMQENILMEVQDVFARLDAKLGSETDIPEVFDHAVANVVNQLLFGYRFVGPKESEYQELKRIIEAPTDLFGKPHMFLAMNIPVIAKLMPEFMYEGPFKDFRDTAFAFFNKQIEAHRQEVDLNDLNSESTDFVETFLKEQKRRESEGDSETFSNVQLSNVCMDLWFAGLNTTTNTITWAISYILHHPEVQDKVHEEMDKVIGSDRLITTADKNDLPYFNAFINEAQRGINIVPLNLQHATTRDTVINGFKIPKGTGVVAQISTVMNNEEVFPDPHTFNPDRFIDEHGKLKRVEELAPFSVGKRSCPGEGLARMELFLFIANFLNRYKIYPSKEGPPSMDKSNGALIAPRLFSATLKRRS | not soluble
11 | MVNKKRQVRFEFFQVNGKAQEGEKIVKGLFDLYPLADRINSISNYTDRDVILFGEKVRMDRFFEVSSSPELYAMHFTRLRNDKPAYVELNNEVLKEIPLNPGEYIAEDISCLYDRELSVLMVQRNIHSLSPSGIEDYFTEMSDDLVEIELLPVVNKEIISKALANEKFRKLELRAGSMNTTSDRSGLRKVLGPFMELFEKFEGTNFVIEISSGRSKKDLSEDQMKEVITAIEQDKSLFSSAIVSAKKSKEVPVEKYDLINGKLYVYRSFDLPDGAFLKSDSVIDNIKNYYFHPNEGGYRKQIIDAVK | not soluble
12 | MSQRKYFGTDGVRGEVGGPVINAAFALRLGYAAGRVLAREHREHASGRGRNRPQVVIGKDTRISGYMLESALEAGLSAAGIDVLLAGPVPTPAVAYLTRTLRLAAGIVISASHNPYQDNGIKFFSAHGMKLPDDIEAAIEQALDEPLGCVGSEELGRARRMADAQGRYIEFCKSTFPHDLDLNGLKLVVDAAHGAAYNVAPHVFRELGAEVHAIGVSPDGFNINKGVGALHPESLAEEVRARGADLGIALDGDADRLQMVDGTGRIYNGDELLYAIVRERMQRGPVAGVVGTLMTNYGLERQLQQIGVGFERANVGDRYVLEQMQARGWLYGGESSGHLLCLDCHTTGDGTIAALQVLTALRRADATLAEWVADLRMYPQKMINVPLAPGLDWKTHDGLARARGAVEAELAGRGRVLIRASGTEPKLRLMVEAEDEALAQASAQKLADSLGA | not soluble
13 | MGSDKIHHHHHHMLKRLLDYNDGEEMDIVVLIKNSQLRRNKKDKLFLAMQFGDGSGEIRGNYWDASHQDAATFSTGTIVELNGKREEYQGRPQIRIYSLRVVGPQEGYSLDEFIKSAPETTNDMKGEIDDFVKQIQNRTWRSIVEYLLKKWDKRFFDYPAGKSNHHALRGGLAYHTLAMLKDARGLADNYEQINRSLLYAGCILHDMGKVQELTGPAATQYTIEGNLVGHLVLIDEQIMLAAQDLKIDLESEDLLLLRHMVLSHHGKFEYGSPKLPALLEAEILHRIDDLDAMVYAVTNALQHTGKGTFTEPLQSQDGKRYYRPKNDPELDQAKNLE | not soluble
14 | THSQLDQLLTGLVDRVAEVDHAVVLSEDGLVVSKSTGFLRDDAERLAATASGLMSLSKGVSMDFRRGPVRQALIEMGKGYLILTAAGPGAHLVVLTRQGADVGVVAYQMNMLVKKIGEHLSAPPRG | soluble
15 | MAHHHHHHMRASTPPLYQRQPEGLAPSYNTGLPLAMPDVPTLRIPQHLSATSHAMPPTAAAQGEFVMAATAPRLGSLETSTRATNPAPFITQFPAAQAPNLHGYVSASPRTSGTGTETSASDYFRYAANLMRNTLPPPMTELAALEEEEKSLKREEEELRPQIIELERMREQLEEQTQKVAVELMQMVVLEQQYYVEPIVDYTAQIKNAEVQCVHLASRVEEAKHSLEELQRQHQSYDAVMEEKERLKKETCAVRERFATLENRRRLCMLQSEALFDVESRRGEEAASQAEETENQLMEMRNNEPLLGIKRSRRSSRSMSRGVSFAQKSIVLDTGSDGDDDGYARSTRHTGDTVSGLTQRGSWNSAGAEDEESEQDCDRDDICGISGQSVRYSLNDTKRVQLVVPAV | not soluble
16 | MTSSQLVKMRLELRRGVLVLAVLGLLKQPHYGYSLRKQLQDGGIDIDEGTLYPLVRRLAEQGLLDSEWRQAEGRERRYYQLSSSGAELLSQLTEEWQQLNGALAFLLGQVTDENAEEN | not soluble
17 | GPGSMDSMCTFIIRPPRSTYEIADLGPGVFRIGDDCTERFMRHDFELENMRGLRFQCSWFKPYPARRVPCVVYCHANCGGRYDGLEALFLLQEGFSLFCFDFCGSGMSEGEYISLGFYERQDLVAIVEFLSLKSDEVDGVALWGRSMGAVATIMYASKGSIRGFVVLFAIRPSHPCGCSSTIWWSDMVGERPGFCQRFWCTGLWSASVSAS | not soluble
18 | MPTDKEGDFIDPKEQEESLENIFSSLNDFQEKTDANAQKNEQKNEQEEEQRRLKEQQRLRKNQKNQEMLKGLQQNLNQFAQKLESVKNKTLDLQIPKQDGVDEKAYQEWYAQIYQILYKGWKGVFYHKASVSALIMIAKDGEFDYTILSYSDFKDYNKSVMTLLNDLKKVDFPPYPGGSMISIQVNFTTKEEQ | not soluble
19 | MASGPHSTATAAAAASSAAPSAGGSSSGTTTTTTTTTGGILIGDRLYSEVSLTIDHSLIPEERLSPTPSMQDGLDLPSETDLRILGCELIQAAGILLRLPQVAMATGQVLFHRFFYSKSFVKHSFEIVAMACINLASKIEEAPRRIRDVINVFHHLRQLRGKRTPSPLILDQNYINTKNQVIKAERRVLKELGFCVHVKHPHKIIVMYLQVLECERNQTLVQTAWNYMNDSLRTNVFVRFQPETIACACIYLAARALQIPLPTRPHWFLLFGTTEEEIQEICIETLRLYTRKKPNYELLEKEVEKRKVALQEAKLKAKGLNPDGTPALSTLGGFSPASKPSSPREVKAEEKSPISINVKTVKKEPEDRQQASKSPYNGVRKDSKRSRNSRSASRSRSRTRSRSRSHTPRRHYNNRRSRSGTYSSRSRSRSRSHSESPRRHHNHGSPHLKAKHTRDDLKSSNRHGHKRKKSRSRSQSKSRDHSDAAKKHRHERGHHRDRRERSRSFERSHKSKHHGGSRSGHGRHRR | not soluble
20 | MSLQADEQSNGKIKFSKFKVNIKNKDNKSNWTDMGTLVVEKVEYGIATGLNNDKQGGGHSSTFFSLEEEEVNNFVKAMTEGGSFKTSLYYGYKYEQSDEKGIQNKEIITKIEDINCSKHITFSGDKIAKNEGHHHHHH | not soluble
21 | MRAMYDLLKQKADVWDLFTRKKEYQPSKLDEHGRFFFTEEDLKNASSPEVSRYLVENGLKVEFPENKTFAVCLTHDMDDIYPPFSHSLLSSVSCLKSLDFRGLTAPFLWRFKGPEYSPYLNFSDIMDLEEGFGAKSSFYFLASREDPVRFRYDIEDLENLLGDISDRGWEAGLHGGYYSYDNLEALNNEKKSLEKVLGKKVLGFRNHYLRFKTPETWELLADAGFGYDSTFGYSELAGFRNGMCHPFKPYNLNKEREINILEIPLTVMDVALFKASSSFEEAWRCTKDLIDTAAGLNGVITLLWHNFVFGCSFRKDWIKLYEKALQYCSEKGAWITSGEEIYRWWENGAMAGDPLEHHHHHH | soluble
